B1: Mitogen-activated protein kinase kinase kinase 2 (Mus musculus), Q61083 (parent)
chain: MDDQQALNSIMQDLAVLHKASRPALSLQETRKAKPSSPKKQNDVRVKFEHRGEKRILQVTRPVKLEDLRSKSKIAFGQSMDLHYTNNELVIPLTTQDDLDKAVELLDRSIHMKSLKILLVVNGSTQATNLEPSPSPEDLNNTPLGAERKKRLSVVGPPNRDRSSPPPGYIPDILHQIARNGSFTSINSEGEFIPESMDQMLDPLSLSSPENSGSGSCPSLDSPLDGESYPKSRMPRAQSYPDNHQEFTDYDNPIFEKFGKGGTYPRRYHVSYHHQEYNDGRKTFPRARRTQGTSFRSPVSFSPTDHSLSTSSGSSVFTPEYDDSRIRRRGSDIDNPTLTVTDISPPSRSPRAPTNWRLGKLLGQGAFGRVYLCYDVDTGRELAVKQVQFNPESPETSKEVNALECEIQLLKNLLHERIVQYYGCLRDPQEKTLSIFMELSPGGSIKDQLKAYGALTENVTRKYTRQILEGVHYLHSNMIVHRDIKGANILRDSTGNIKLGDFGASKRLQTICLSGTGMKSVTGTPYWMSPEVISGEGYGRKADIWSVACTVVEMLTEKPPWAEFEAMAAIFKIATQPTNPKLPPHVSDYTRDFLKRIFVEAKLRPSAEELLRHMFVHYH
partner: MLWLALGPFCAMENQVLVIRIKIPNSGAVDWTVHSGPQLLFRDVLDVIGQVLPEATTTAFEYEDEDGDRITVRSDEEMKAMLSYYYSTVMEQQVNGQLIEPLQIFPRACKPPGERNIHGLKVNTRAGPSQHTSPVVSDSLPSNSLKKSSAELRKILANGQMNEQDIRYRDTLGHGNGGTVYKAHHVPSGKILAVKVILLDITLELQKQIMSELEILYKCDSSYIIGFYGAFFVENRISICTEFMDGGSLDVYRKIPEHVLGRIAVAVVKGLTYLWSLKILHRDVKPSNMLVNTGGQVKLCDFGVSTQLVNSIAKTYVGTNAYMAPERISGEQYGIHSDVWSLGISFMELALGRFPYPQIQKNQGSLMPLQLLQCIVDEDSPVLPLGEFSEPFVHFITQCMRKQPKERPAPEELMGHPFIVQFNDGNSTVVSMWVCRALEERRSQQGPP

Variants of: B1
Settings: with mp2k5_mouse Map2k5, Q9WVS7

Row | effect of a mutation on the interaction | Variant
1 | decreasing interaction | K47A

From IntAct's records for PubMed 12912994
